According to patent publication US20030124121A1 (IMMUNEX, published 2003):

Experiments:
human IL-4 receptor [1] = molecular target: T1, human IL-4 receptor (human, UniProt P24394 26-232, limits assumed); test: hybridoma identification; assay not described
T1 construct: extracellular domain is 1 to 207 or -2 to 207 in that numbering; also called huIL-4R; IL-4Ralpha

human IL-4 receptor [2] = molecular target: T1, human IL-4 receptor; test: hybridoma screen for human gamma/kappa specific to IL-4R
Description: The mouse was sacrificed, and spleen cells were extracted and fused with the murine myeloma cell line P3x63Ag8.653 (ATCC CRL 1580). A conventional PEG fusion protocol was followed. The fusion was screened for HuIgG and HuKappa, followed by a rescreen for human gamma and kappa specific to IL-4R. […] Techniques for altering (switching) the subclass/isotype of an antibody are known. […] Sequence information for a human IgG4 heavy chain is presented, for example, in Ellison et al. (DNA Vol. 1, no. 1, pp 11-18, 1981), which is hereby incorporated by reference herein.

human IL-4 receptor [3] = molecular target: T1, human IL-4 receptor; test: assay not described

| binding result (human IL-4 receptor [1]) | Binder | also measured |
| --- | --- | --- |
| binds | MAb 27A1 (antibody, IgG1, V domains shown, Fully human antibody) VH: QVQLVESGGGVVQPGRSLRLSCSASGFTFSRYGMHWVRQAPGRGLEWVAIIWFEGNNQYYADSVKGRFTVSRDNSKNTLYLEMNSLRAEDTAVYYCARGKYYFDYWGQGTLVTVSS VL: not shown |  |
| binds | MAb 5A1 (antibody, IgG1, V domains shown, Fully human antibody) VH: EVQLVQSGGGLVHPGGSLRLTCAGSGFTFSNFVMHWVRQTPGQGLEWVSAIGTGGGTYYADSVKGRFTISRDNAKSSLYLQMNSLRAEDMAVYYCARDRPMVRGVIIDYFDYWGQGTLVTVSS VL: EIVLTQSPATLSLSPGERATLSCRASQSVSSYLAWYQQKPGQAPRLLIYHASNRATGIPARFSGSGSGTDFTLTISSLEPEDFAVYYCQQRSNWPLTFGGGTKVEIK |  |
|  | MAb 12B5 (antibody, human IgG1, V domains shown, also called clone 12B5) VH: EVQLVQSGGGLVHPGGSLRLSCAGSGFTFSRNAMFWVRQAPGKGLEWVSGIGTGGATNYADSVKGRFTISRDNAKNSLYLQMNSLRAEDMAVYYCARGRYYFDYWGQGTLVTVSS VL: not shown | binding result (human IL-4 receptor [2]): binds |
| binds | MAb 63 (antibody, IgM, V domains shown, Fully human antibody) VH: EVQVLESGGNLVQPGGSLRLSCAASGFTFSSYAMSWVRQAPGKGLEWVSSITGSGGSTYYADSVKGRFTISRDNSKNTLYLQMNSLRAEDTAIFYCAKDNRGFFHYWGQGTLVTVSS VL: DIQMTQSPSSVSASVGDRVTITCRASQGISTWLAWYQHKPGKAPKLLIYVASSLQSGVPSRFSGSGSGTDFTLTISSLQPEDFATYYCQQANSFPFTFGPGTKVDIK |  |
|  | MAb 1B7 (antibody, V domains shown, Derived from MAb 63; differs from it only in the light chain; heavy chain identical to MAb 63) VH: EVQVLESGGNLVQPGGSLRLSCAASGFTFSSYAMSWVRQAPGKGLEWVSSITGSGGSTYYADSVKGRFTISRDNSKNTLYLQMNSLRAEDTAIFYCAKDNRGFFHYWGQGTLVTVSS VL: EIVLTQSPSSVSASVGDRVTITCRASQGISNRLAWYQQKPGKAPKLLIYIASILQRGVPSRFSGSGSGTDFTLTITRLQPEDFATYYCQQANSFPFTFGPGTKVDIK | binding result (human IL-4 receptor [3]): binds |
